# According to patent US20160084820A1, “METHODS OF TREATING OR PREVENTING PERIODONTITIS AND DISEASES ASSOCIATED WITH PERIODONTITIS” (priority 2010, published 2016):
# Where two headings read alike, the source gives them in different places.
# Legend:
# nitric oxide production = experiment: NO2− (nitric oxide) production, Griess reaction-based assay, macrophages; assay type: cell-based, mouse; conditions: for inhibiting nitric oxide, C5a vs C5a^desArg: 24 h
# neutrophils = experiment: Intracellular Ca2+ mobilization (Indo-1 AM), neutrophils; assay type: cell-based, mouse
# IL-12p70 production = experiment: IL-12p70 induction in IFN-gamma-primed macrophages, ELISA; assay type: cell-based, mouse
# Protocol: Induction of nitric oxide production was assessed by measuring the amount of NO2− (stable metabolite of nitric oxide) in stimulated culture supernatants using a Griess reaction-based assay kit (R&D Systems), as previously performed (Hajishengallis et al., 2008, PNAS USA, 105:13532-7). Levels of cAMP in activated cell extracts were measured using a cAMP enzyme immunoassay kit (Cayman Chemical) (Liang et al., 2007, J. Immunol., 178:4811-9). C5a-induced intracellular calcium mobilization was monitored in cells (4×10^6) loaded with 1 μM Indo 1-AM in the presence of 1 μM pluronic acid, as previously described (Ali et al., 1993, J. Biol. Chem., 268:24247-54). Calcium traces were recorded in a Perkin-Elmer fluorescence spectrometer (Model 650-19) with an excitation wavelength of 355 nm and an emission wavelength of 405 nm. Induction of cytokine production in activated cell culture supernatants or in the peritoneal fluid of infected mice was determined by ELISA using kits from eBioscience or Cell Sciences. C5a levels were measured by sandwich ELISA, employing a pair of capture and biotinylated anti-05a mAbs (BD Pharmingen), according to the manufacturer's protocol.
# Whether C5a inhibits P. gingivalis-induced IL-12p70 in peritoneal macrophages was investigated. Since macrophages are generally poor producers of IL-12p70 in vitro unless primed with IFN-gamma, macrophages used in these experiments were primed with IFN-gamma (0.1 μg/ml). […] The host TLR response against P. gingivalis is predominantly mediated by TLR2, both in vitro and in vivo. Therefore, whether C5a-mediated inhibition of P. gingivalis-induced IL-12p70 could involve a C5aR-TLR2 crosstalk additionally was examined.
# [1] = test system: phagocytosed P. gingivalis in mouse peritoneal macrophages; assay type: cell-based, P. gingivalis ATCC 33277; conditions: for promoting intracellular survival, C5a vs C5a^desArg: 24 h
# Protocol: The viability of phagocytosed P. gingivalis was monitored by an antibiotic protection-based intracellular survival assay, as previously described (Wang et al., 2007, J. Immunol., 179:2349-58). Briefly, mouse peritoneal macrophages were allowed to phagocytose P. gingivalis (MOI=10:1; 5×10^6 bacteria and 5×10^5 cells) for […] at 37° C. This was followed by washing to remove extracellular nonadherent bacteria and 1-hour treatment with antibiotics (300 μg/ml gentamicin and 200 μg/ml metronidazole) to eliminate residual or extracellular adherent bacteria. The macrophages were subsequently cultured overnight (for a total of 24 hours) or for 48 hours Immediately after, the macrophages were washed and lysed in sterile distilled water, and viable counts of internalized P. gingivalis were determined by plating serial dilutions of macrophage lysates on blood agar plates subjected to anaerobic culture.
# The viability of phagocytosed P. gingivalis was monitored by an antibiotic protection-based intracellular survival assay, as previously described (Wang et al., 2007, J. Immunol., 179:2349-58)). Briefly, mouse peritoneal macrophages were allowed to phagocytose P. gingivalis (at a MOI=10:1; 5×10^6 bacteria and 5×10^5 macrophages) for 30 min at 37° C. This was followed by washing to remove extracellular nonadherent bacteria and 1-hour treatment with antibiotics (300 μg/ml gentamicin and 200 μg/ml metronidazole) to eliminate residual or extracellular adherent bacteria. The macrophages were subsequently cultured overnight for a total of 24 hours Immediately after, the macrophages were washed and lysed in sterile distilled water and viable counts of internalized P. gingivalis were determined by plating serial dilutions of macrophage lysates on blood agar plates subjected to anaerobic culture.
# intracellular cAMP = experiment: cAMP enzyme immunoassay in P. gingivalis-stimulated macrophages; assay type: cell-based, mouse; conditions: for elevating cAMP, C5a vs C5a^desArg: 1 h
# macrophages [2] = experiment: Intracellular Ca2+ mobilization (Indo-1 AM), macrophages; assay type: cell-based, mouse; conditions: 50 nM
# [3] = test system: mouse peritoneal macrophages; experiment: P. gingivalis phagocytosis and receptor expression by flow cytometry; assay type: cell-based
# Protocol: First, experiments were performed to determine the effect of C5a (50 nM) or C3a (200 nM) on P. gingivalis phagocytosis by unprimed or IFN-γ-primed mouse peritoneal macrophages (FIG. 6A). The phagocytic index was calculated following a 30-min incubation using the following formula: % positive cells for fluorescently labeled P. gingivalis×MFI/100 (extracellular fluorescence was quenched prior to flow cytometry). Mouse macrophages were incubated at 37° C. for 30 min (B) or 24 hours (C) with medium, C5a (50 nM) only, or P. gingivalis (MOI=10:1) with or without C5a (50 nM). The expression levels of the indicated receptors, which coordinately mediate P. gingivalis uptake, were determined by flow cytometry after cell staining with appropriate fluorescently labeled antibodies (FIGS. 6B and 6C). The 30-min time point was examined to determine possible induced surface expression of preformed receptors from intracellular pools. […] Mouse-specific mAbs to TLR2 (clone 6C2), TLR1 (TR23), CD14 (Sa2-8), CD11b (M1/70), and CD18 (M18/2) were obtained from e-Bioscience.
# [4] = test system: GSK3β Ser9-phosphorylation; experiment: GSK3β Ser9 phosphorylation ELISA in macrophages; assay type: cell-based, mouse; conditions: C5a 50 nM without Pg
# Protocol: PKA activity in lysates of activated cells was determined using the ProFluor™ PKA assay, according to the instructions of the manufacturer (Promega) (Hajishengallis et al., 2008, PNAS USA, 105:13532-7). Phosphorylation of GSK313 on Ser9 and total GSK3β were monitored using FACE™ GSK3β ELISA kits (Active Motif).
# IL-6 production = experiment: IL-6 ELISA in P. gingivalis-stimulated macrophages; assay type: cell-based, mouse; conditions: C5a 50 nM, 5 or 24 hours
# Protocol: Mouse peritoneal macrophages were incubated for 5 or 24 hours at 37° C. with P. gingivalis (Pg; MOI=10:1) in the presence or absence of C5a (50 nM), and culture supernatants were assayed for IL-6 by ELISA.
# human neutrophils = experiment: In vitro killing of Pg and oxidative burst by human neutrophils; assay type: cell-based; conditions: presence of C5a
# Protocol: (§1) To directly implicate neutrophils in this evasion mechanism, in vitro experiments were performed. It was shown that the ability of mouse or human neutrophils (purified from peripheral blood5 collected under IRB approval) to kill Pg was inhibited in the presence of C5a in a C5aR-dependent manner, whereas their oxidative burst response was enhanced.
# macrophages [5] = test system: macrophages
# Protocol: Thioglycollate-elicited macrophages were isolated from the peritoneal cavity of wild-type or mice deficient in TLR2, TLR4, C3aR, or C5aR (The Jackson Laboratory) (Zhang et al., 2007, Blood, 110:228-36; Gajishengallis et al., 2006, Cell. Microbiol., 8:1557-70), in compliance with established federal guidelines and institutional policies. The macrophages were cultured at 37° C. and 5% CO2 in RPMI 1640 (InVitrogen) supplemented with 10% heat-inactivated FBS, 2 mM L-glutamine, 100 units/ml penicillin G, 100 μg/ml streptomycin, and 0.05 mM 2-ME.
# Thioglycollate-elicited macrophages were isolated from the peritoneal cavity of wild-type or mice deficient in TLR2 or C5aR (Hajishengallis et al., 2006, Cell. Microbiol., 8:1557-70; Zhang et al., 2007, Blood, 110:228-36) in compliance with established institutional policies and federal guidelines. Both BALB/c and C57BL/6 C5aR-deficient mice were used (with their respective wild-type controls): The BALB/c mice were obtained from The Jackson Laboratory; and the C57BL/6 C5aR-deficient mice were originally provided by Dr. Craig Gerard (Harvard Medical School) and are now housed at The Jackson Laboratory. The TLR2-deficient mice were originally C57BL/6 (The Jackson Laboratory) and were backcrossed for nine generations onto a BALB/c genetic background before their use in these studies. […]
# mouse neutrophils = experiment: In vitro killing of Pg and oxidative burst by mouse neutrophils; assay type: cell-based; conditions: presence of C5a
# Protocol: as §1
# [6] = test system: negative regulators of TLR signaling; experiment: Expression of negative regulators of TLR signaling, quantitative real-time PCR; assay type: cell-based, mouse; conditions: C5a 50 nM, 4 hours
# Protocol: Gene expression in resting or activated mouse macrophages was quantified using quantitative real-time PCR. Briefly, RNA was extracted from cell lysates using the PerfectPure RNA cell kit (5 Prime, Fisher) and quantified by spectrometry at 260 and 280 nm. The RNA was reverse-transcribed using the High-Capacity cDNA Archive kit (Applied Biosystems) and quantitative real-time PCR with cDNA was performed using the ABI 7500 Fast System, according to the manufacturer's protocol (Applied Biosystems). TaqMan probes, sense primers, and antisense primers for expression of a house-keeping gene (GAPDH) or iNOS (or the genes shown in FIG. 7) were purchased from Applied Biosystems.
# Supplemental experiments also examined the relative expression of negative regulators of TLR signaling in P. gingivalis-stimulated macrophages in the absence or presence of C5a. Mouse macrophages were stimulated with P. gingivalis (Pg; at a MOI=10:1) or medium control, in the presence or absence of 50 nM of C5a, and incubated for 4 hours. Quantitative real-time PCR (ABI 7500 Fast System; Applied Biosystems) was used to determine mRNA expression levels for the indicated molecules (normalized against GAPDH mRNA levels), which are shown in FIG. 7.
molecule,measurement,setting,value
C5a^desArg: desarginated form of mouse C5a (protein) NLHLLRQKIEEQAAKYKHSVPKKCCYDGARVNFYETCEERVARVTIGPLCIRAFNECCTIANKIRKESPHKPVQLG,"inhibiting nitric oxide, C5a vs C5a^desArg",nitric oxide production; 50 nM,no significant differences
same,intracellular Ca^2+ mobilization,neutrophils,only C5a was active
same,inhibition of P. gingivalis-induced IL-12p70,IL-12p70 production; 10 nM,not
same,inhibition of P. gingivalis-induced IL-12p70,IL-12p70 production; 50 nM,significant (p<0.05) inhibition
same,"promoting intracellular survival, C5a vs C5a^desArg",[1]; 50 nM,no significant differences
same,"elevating cAMP, C5a vs C5a^desArg",intracellular cAMP; 50 nM,no significant differences
same,intracellular Ca^2+ mobilization,macrophages [2],comparable intracellular Ca^2+ mobilization
"C5a: mouse C5a anaphylatoxin, purchased from Cell Sciences or R&D Systems (protein) NLHLLRQKIEEQAAKYKHSVPKKCCYDGARVNFYETCEERVARVTIGPLCIRAFNECCTIANKIRKESPHKPVQLGR",P. gingivalis phagocytosis,"[3]; C5a 50 nM or C3a 200 nM, 30-min incubation",not significantly affected
same,"expression of macrophage receptors CD14, TLR2, CD11b/CD18","[3]; C5a 50 nM, 30 min or 24 hours",essentially unaffected
same,"inhibiting nitric oxide, C5a vs C5a^desArg",nitric oxide production; 10 nM,stronger effects than C5a^desArg
same,production of nitric oxide in P. gingivalis-stimulated macrophages,"nitric oxide production; C5a 50 nM, unprimed or IFN-gamma-primed, 24 hours",significantly inhibited
same,intracellular Ca^2+ mobilization,neutrophils,only C5a was active
same,Ser9-phosphorylation of GSK3β by C5a itself,[4],only slightly increased
same,IL-6 production in P. gingivalis-stimulated macrophages,IL-6 production,up-regulation of IL-6 production
same,ability of neutrophils to kill Pg,human neutrophils,inhibited
same,oxidative burst response,human neutrophils,enhanced
same,inhibition of P. gingivalis-induced IL-12p70,IL-12p70 production; 10 nM,already effective
same,P. gingivalis-induced IL-12p70 production,"IL-12p70 production; C5a 50 nM, 24 h",significantly inhibited
same,LPS-induced IL-12p70 production,"IL-12p70 production; C5a 50 nM, E. coli LPS 0.1 μg/ml, 24 h",significantly inhibited
same,cell viability compared to medium-only treatments,macrophages [5],"None of the experimental treatments, including treatments with C5a up to 100 nM, affected cell viability"
same,"promoting intracellular survival, C5a vs C5a^desArg",[1]; 10 nM,stronger effects than C5a^desArg
same,intracellular survival of P. gingivalis in macrophages (viable counts of internalized bacteria),"[1]; Pg MOI=10:1, C5a 50 nM or C3a 200 nM, 24 or 48 hours post-infection",significantly promoted
same,Pg CFU with C5a in the absence of inhibitors,"[1]; macrophages with Pg and C5a, 24 hours postinfection, FIG. 2D dashed line",13.7±2.7 [×10^4] CFU
same,ability of neutrophils to kill Pg,mouse neutrophils,inhibited
same,oxidative burst response,mouse neutrophils,enhanced
same,"elevating cAMP, C5a vs C5a^desArg",intracellular cAMP; 10 nM,stronger effects than C5a^desArg
same,"elevation of intracellular cAMP, C5a + P. gingivalis relative to P. gingivalis alone","intracellular cAMP; C5a 50 nM, Pg MOI=10:1",> 3 fold
same,cAMP difference AMD+C5a+Pg vs. AMD+Pg,intracellular cAMP; CXCR4 blockade by AMD3100 1 μg/ml,> 6 fold
same,cAMP response to C5a by itself,intracellular cAMP; macrophages without P. gingivalis,failed to induce a cAMP response
same,expression of negative regulators of TLR signaling with P. gingivalis and C5a,[6],no synergistic or additive effects
same,intracellular Ca^2+ mobilization,macrophages [2],comparable intracellular Ca^2+ mobilization
